Assay results taken from PMC4072508, “Genome-Wide Prediction and Validation of Peptides That Bind Human Prosurvival Bcl-2 Proteins” (PLoS Computational Biology, 2014).

T1: Bfl-1, Q16548
T1 chain: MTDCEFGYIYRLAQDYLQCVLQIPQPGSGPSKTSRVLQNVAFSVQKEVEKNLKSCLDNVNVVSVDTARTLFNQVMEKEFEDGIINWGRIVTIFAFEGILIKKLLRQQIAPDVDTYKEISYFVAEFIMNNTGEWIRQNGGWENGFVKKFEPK

T2: Mcl-1, Q07820
T2 chain: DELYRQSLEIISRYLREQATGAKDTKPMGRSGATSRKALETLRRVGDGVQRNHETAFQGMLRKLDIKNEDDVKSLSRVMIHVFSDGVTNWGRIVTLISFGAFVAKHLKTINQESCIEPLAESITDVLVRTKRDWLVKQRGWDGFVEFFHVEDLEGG

B1: RBL1 (peptide)
chain: WTLFVYTKGNFRMIGDDLVNSYHLLL
B2: CRB1 (peptide)
chain: TGSLCEIATTLSFEGDGFLWVKSGSV
B3: EXOC4 (peptide)
chain: MQTLSELAKSFQDMLDRCLLVLHLEV
B4: DDX4 (peptide)
chain: FSKREKLVEIDRNIGDERTMVFVETK
B5: CYBB (peptide)
chain: APEEDFFSIHIRIVGDWTEGLFNACG
B6: MCF2L2 (peptide)
chain: ADAIRPRCVELRHLLDDFINGNKKKW
B7: PRDX4 (peptide)
chain: LDFTFVCPTEIIAFGDRLEEFRSINT
B8: FOXI1 (peptide)
chain: PDKRLTLSQIDQYVADNFPFYNKSKA
B9: NOX4 (peptide)
chain: TETKATFGVHDKIVGDWTERFRDLLL
B10: FBXW5 (peptide)
chain: LTETSLISGNLHRIGDITSCSVLWLN
B11: FBXW5 (peptide)
chain: LTETSLISGNDHRIGDITSCSVLWLN
B12: NBEAL2 (peptide)
chain: AELRLFLAQRDRWLCDSCPASRATCV

Molecular target: T1, Bfl-1, Q16548
Assay: peptide SPOT array, c-Myc-tagged receptor at 1 uM or 100 nM, anti-c-Myc-Cy3

In order of rising SPOT signal as a fraction of Bim BH3's signal on the same receptor and array:
1. B2  0.03
2. B7  0.03
3. B3  0.04
4. B5  0.04
5. B10  0.04
6. B11  0.04
7. B4  0.06
8. B9  0.07
9. B1  0.12
10. B6  0.31
11. B12  0.33
12. B8  0.42

Molecular target: T2, Mcl-1, Q07820
Assay: as above

In order of rising SPOT signal as a fraction of Bim BH3's signal on the same receptor and array:
1. B11  0.03
2. B2  0.04
3. B3  0.04
4. B7  0.04
5. B10  0.04
6. B9  0.05
7. B4  0.07
8. B5  0.09
9. B1  0.15
10. B6  0.26
11. B8  0.39
12. B12  0.5

Molecular target: Bcl-xL, Q07817
Sequence (Q07817 1-209): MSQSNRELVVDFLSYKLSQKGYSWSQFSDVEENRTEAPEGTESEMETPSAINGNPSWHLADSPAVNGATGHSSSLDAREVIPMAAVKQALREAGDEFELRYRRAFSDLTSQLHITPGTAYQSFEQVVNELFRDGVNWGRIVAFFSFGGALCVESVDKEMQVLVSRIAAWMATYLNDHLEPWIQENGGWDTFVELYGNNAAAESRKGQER
Assay: as above

In order of falling SPOT signal as a fraction of Bim BH3's signal on the same receptor and array:
1. B8  0.84
2. B6  0.56
3. B12  0.34
4. B1  0.13
5. B2  0.06
6. B4  0.06
7. B5  0.06
8. B7  0.06
9. B10  0.06
10. B11  0.06
11. B3  0.05
12. B9  0.05
